What is called Kd is the equilibrium constant for the complex coming apart. A low value points to tighter binding.

The target of experiment [1] is human chitinase 3-like-1 (hChi3l1) with C-terminal Avitag and His tag (Homo sapiens, UniProt P36222). In words: BLI. (In BLI a coated tip is dipped into the sample, and binding shifts an interference pattern.)
The target of experiment [2] is mouse chitinase 3-like-1 (mChi3l1) with C-terminal Avitag and His tag (Mus musculus, UniProt Q61362). Nature of the experiment: BLI.
Chain of mouse chitinase 3-like-1 (mChi3l1) with C-terminal Avitag and His tag (Q61362 30-389): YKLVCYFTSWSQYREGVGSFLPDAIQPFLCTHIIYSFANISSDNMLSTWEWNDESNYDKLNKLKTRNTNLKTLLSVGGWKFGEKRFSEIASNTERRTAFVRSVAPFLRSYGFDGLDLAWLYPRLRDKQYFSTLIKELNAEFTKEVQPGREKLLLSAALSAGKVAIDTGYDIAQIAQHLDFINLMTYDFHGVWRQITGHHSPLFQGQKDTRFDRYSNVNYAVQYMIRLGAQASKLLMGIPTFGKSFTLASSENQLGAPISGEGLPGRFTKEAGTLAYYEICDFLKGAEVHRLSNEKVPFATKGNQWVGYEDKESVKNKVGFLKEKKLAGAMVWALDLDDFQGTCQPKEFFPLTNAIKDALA

Chain of human chitinase 3-like-1 (hChi3l1) with C-terminal Avitag and His tag (P36222 22-383): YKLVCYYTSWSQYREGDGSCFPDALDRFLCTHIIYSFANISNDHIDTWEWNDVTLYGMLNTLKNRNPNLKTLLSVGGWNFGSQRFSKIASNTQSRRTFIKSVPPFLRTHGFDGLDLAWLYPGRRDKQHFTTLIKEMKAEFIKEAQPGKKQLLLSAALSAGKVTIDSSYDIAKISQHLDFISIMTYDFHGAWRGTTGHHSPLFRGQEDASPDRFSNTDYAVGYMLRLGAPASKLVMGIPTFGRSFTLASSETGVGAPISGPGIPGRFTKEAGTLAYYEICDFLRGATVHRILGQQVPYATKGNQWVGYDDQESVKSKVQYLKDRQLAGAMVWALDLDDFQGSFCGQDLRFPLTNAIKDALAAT

B1: humanized C59, second version (hC59): hC59-1 with the S67F reverse mutation in the kappa chain FR3 (antibody, V domains shown)
VH: EVQLVESGGGLVQPGGSLRLSCAASGFTISSDYYMCWVRQAPGKGLEWIGCIYIGSGTDTYYASWAKGRFTISRHNSKNTLYLQMNSLRAEDTAVYYCARDKGWSNAWGFYFQLWGQGTLVTVSS
VL: DIQMTQSPSSLSASVGDRVTITCQASQSIGKYLNWYQQKPGKAPKLLIYSSSSLASGVPSRFSGSGFGTDFTLTISSLQPEDFATYYCQQGYSYVDLENGFGGGTKVEI
As for B1, the Kd in experiment [1] is 9 nM; in experiment [2], 7 nM.
